What is called Kd is a measure of binding affinity in units of concentration. As usually defined, the EC50 (read off the curve) is the concentration that produces a half-maximal response.

In assay [1] the target is recombinant nucleoprotein (NP) protein derived from influenza virus H1N1 to which a Flag tag was fus (influenza virus H1N1).
Assay [2] addresses recombinant nucleoprotein derived from influenza virus subtype A H1N1 (Sino Biological, 11675-VO8H) (influenza virus subtype A H1N1).

Sequence of recombinant nucleoprotein derived from influenza virus subtype A H1N1 (Sino Biological, 11675-VO8H) (influenza virus subtype A H1N1) (P03466 whole entry): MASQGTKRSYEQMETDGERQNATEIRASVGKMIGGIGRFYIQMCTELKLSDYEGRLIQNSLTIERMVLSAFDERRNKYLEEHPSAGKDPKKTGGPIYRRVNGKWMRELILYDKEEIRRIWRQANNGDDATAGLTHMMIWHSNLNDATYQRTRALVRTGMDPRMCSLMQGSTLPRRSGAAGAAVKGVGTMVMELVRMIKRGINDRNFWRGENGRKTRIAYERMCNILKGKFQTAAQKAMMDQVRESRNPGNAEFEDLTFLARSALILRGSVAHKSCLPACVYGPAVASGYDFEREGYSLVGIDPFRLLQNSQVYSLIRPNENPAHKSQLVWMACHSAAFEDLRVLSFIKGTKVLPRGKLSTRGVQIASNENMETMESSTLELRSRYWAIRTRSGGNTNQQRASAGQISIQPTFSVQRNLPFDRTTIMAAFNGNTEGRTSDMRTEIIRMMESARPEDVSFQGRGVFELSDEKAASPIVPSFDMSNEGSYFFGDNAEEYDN
Sequence of recombinant nucleoprotein (NP) protein derived from influenza virus H1N1 to which a Flag tag was fus (influenza virus H1N1) (P03466 whole entry): as above

B1: VHH antibody consisting of the amino acid sequence represented by SEQ ID NO: 08 (VHH)
VHH: EVQLVESGGGLVQAGDSLRLSCAASGRTFINLDMGWFRQPPGKEREYVAAITRNGAITSYADSAKGRFTISRDNAKNTVSLEMNSLKPEDTGVYYCAAYSISNYGSGWYKPDYWGQGAQVTVSS
On to B1, for which, in assay [1], the dissociation constant Kd is 0.224 nM. Besides, the half-maximal effective concentration (EC50 (read off the curve)) in assay [2] is around 8 ng/mL.

The values are drawn from patent US20170349646A1 (PANASONIC INTELLECTUAL PROPERTY MANAGEMENT, published 2017).
